Experimental data reported in patent US20170051040A1 (UNIVERSITE PIERRE ET MARIE CURIE PARIS 6, published 2017).
Non-standard residues stand in square brackets, D forms with d. No end group written: not given here.

Target: CCR2 on mouse monocytes (mouse, UniProt P51683 1-373)
Assay: cell-based or functional assay

Chain of CCR2 on mouse monocytes (P51683 whole entry): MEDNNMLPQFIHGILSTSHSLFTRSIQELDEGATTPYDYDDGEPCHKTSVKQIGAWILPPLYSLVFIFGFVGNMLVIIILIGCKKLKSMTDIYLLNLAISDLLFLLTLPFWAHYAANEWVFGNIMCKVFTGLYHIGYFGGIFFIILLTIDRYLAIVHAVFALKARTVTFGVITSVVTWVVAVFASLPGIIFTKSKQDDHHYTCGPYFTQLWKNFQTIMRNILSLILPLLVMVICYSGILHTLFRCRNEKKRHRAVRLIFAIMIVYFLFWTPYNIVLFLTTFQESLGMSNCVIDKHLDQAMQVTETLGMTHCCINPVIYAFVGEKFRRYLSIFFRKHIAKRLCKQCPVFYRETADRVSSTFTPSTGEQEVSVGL

inhibition of migration of mouse monocytes and classical monocytes, IC50: 2 µM
Binder: [dL]G[dT][dF][dL][dK][dC] [ECL1 (C) inverso]
